Results on three molecules are retold here after PMC10237670, “Biochemical properties of naturally occurring human bloom helicase variants”.

In data set [1] the target is T1, BLMcore P868L (Homo sapiens, UniProt P54132 636-1298, P868L). The experiment in a line: EMSA; 5 mM MgCl2; smear; estimated apparent KD; 50 mM Tris-HCl pH 7.5, 50 mM KCl, 5 mM MgCl2, 1 mM DTT, 0.1 mg/mL BSA, 40 nM DNA, 30 min room temperature; 5% gel in TBE + 100 mM KCl at 4 C. The settings on record: protein: recombinant, (HisTrap purified).
T1 sequence (P54132 636-1298 P868L): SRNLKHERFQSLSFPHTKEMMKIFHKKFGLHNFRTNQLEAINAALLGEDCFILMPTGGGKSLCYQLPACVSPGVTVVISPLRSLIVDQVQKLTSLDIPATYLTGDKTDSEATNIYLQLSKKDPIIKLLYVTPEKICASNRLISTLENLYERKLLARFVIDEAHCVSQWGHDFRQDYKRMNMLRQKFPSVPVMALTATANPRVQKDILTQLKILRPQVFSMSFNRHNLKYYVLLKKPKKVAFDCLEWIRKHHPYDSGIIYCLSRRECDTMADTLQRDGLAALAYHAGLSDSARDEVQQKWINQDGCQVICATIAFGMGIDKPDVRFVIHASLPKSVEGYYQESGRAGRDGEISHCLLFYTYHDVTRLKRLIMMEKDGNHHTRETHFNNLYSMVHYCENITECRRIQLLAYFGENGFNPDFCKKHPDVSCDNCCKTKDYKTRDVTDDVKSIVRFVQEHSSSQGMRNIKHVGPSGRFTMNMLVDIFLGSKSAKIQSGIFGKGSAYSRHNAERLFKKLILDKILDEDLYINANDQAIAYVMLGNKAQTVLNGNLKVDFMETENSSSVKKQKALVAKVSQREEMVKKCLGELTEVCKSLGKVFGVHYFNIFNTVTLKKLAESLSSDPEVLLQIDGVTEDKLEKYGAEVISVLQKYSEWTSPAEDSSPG
The target of a further data set is BLMcore K869A K870A (Homo sapiens, UniProt P54132 636-1298, K869A;K870A). The data set is described as above. The settings on record: protein: recombinant, (HisTrap purified).
BLMcore K869A K870A, sequence (P54132 636-1298 K869A/K870A): as the sequence (P54132 636-1298 P868L) above, with L233P, K234A, K235A counted along it
Data set [2] deals with T2, BLMcore G1120R (Homo sapiens, UniProt P54132 636-1298, G1120R). Described as above. The note with it: protein: recombinant, (HisTrap purified).
T2 sequence (P54132 636-1298 G1120R): as the sequence (P54132 636-1298 P868L) above, with L233P, G485R counted along it
Data set [3] has as its target T1, BLMcore P868L. The experiment in a line: EMSA; 5 mM MgCl2; distinct shift; estimated apparent KD; 50 mM Tris-HCl pH 7.5, 50 mM KCl, 5 mM MgCl2, 1 mM DTT, 0.1 mg/mL BSA, 40 nM DNA, 30 min room temperature; 5% gel in TBE + 100 mM KCl at 4 C. The settings on record: protein: recombinant; (HisTrap purified); label: 3'-FAM on oAV320 (strand 2); 18 bp duplex, 3' overhang 39 nt on strand 1.

Data set [4] addresses T2, BLMcore G1120R. Described as above. The note with it: protein: recombinant; (HisTrap purified); label: 3'-FAM on oAV320 (strand 2); 18 bp duplex, 3' overhang 39 nt on strand 1.
The mark [5] stands for this setting: label: 3'-FAM, intramolecular G4 (folded in 100 mM KCl) with 3' T-rich ssDNA tail.

For GGGTTAGGGTTAGGGTTAGGGTTTTTTTTTT (structured_DNA) [G4 DNA with 3' ssDNA overhang (FAM-oRC96)], the Kd was about 125 nM in the data set with BLMcore P868L [1] (setting [5]), about 625 nM in the data set with BLMcore K869A K870A (setting [5]) and about 250 nM in the data set with BLMcore G1120R [2] (setting [5]).
Regarding TTTTTTTTTTTTTTTTTTTTTTTTTTTTTT (ssDNA) [FAM-dT30 (ssDNA)], the Kd was about 62.5 nM with BLMcore P868L [1] (single strand), about 312 nM in the data set with BLMcore K869A K870A (single strand) and about 62.5 nM with BLMcore G1120R [2] (single strand).

B1: partial dsDNA with 3' ssDNA overhang (oRC32/FAM-oAV320) (dsDNA)
DNA 1: TGGCGACGGCAGCGAGGCTTAGGGTTAGCGTTAGCGTTAGGGTTTTTTTTTTTTTTT
DNA 2: GCCTCGCTGCCGTCGCCA
For the molecule B1, the Kd with BLMcore P868L [3] and in the data set with BLMcore G1120R [4] was about 62.5 nM throughout.
